From patent US11938195B2, “Upconversion nanoparticle peptide conjugates” (BP InnoMed Limited, priority 2021, dated 2024) come the findings set out here.

The test system of data set [1] is p65. Briefly: Western blot of p65 (NF-κB) in C666 cells. Type of data set: cell-based. The source says:
(§1) NF-κB signaling pathway is critical for the survival of EBV-infected tumor cells. Here we investigated if our nanoprobes could affect this oncogenic pathway. EBV-positive LCL3 and C666 cells were used as models, EBV-negative HK1 cells were used as control and Western blot was used to analyze the protein expression of p65, a major transcription factor in the NF-κB family. […] GAPDH and Histone are regarded as internal standards in cytosolic and nuclear fractions, respectively. […] This is consistent with the cellular uptake results.
(§2) Western blotting: EBV-positive C666, LCL3 and EBV-negative HK1 cell pellets were treated with phosphatase and protease inhibitors at 0-4° C. for 30 min. The total protein concentrations were calculated by protein absorbance. The protein was resolved by sodium dodecyl sulfate-polyacrylamide gel electrophoresis (SDS-PAGE) and transferred to cellulose filter membranes. The membranes were blocked with 3% BSA in Tris-buffered saline in 0.1% Tween 20 (TBST) for 1 h with gentle shaking and subsequently incubated with primary antibodies (1:1000) in 3% BSA in TBST at 4° C. for overnight. After rinsing with TBST buffer three times, the blots were then incubated with corresponding secondary anti-rabbit antibody (1:6000) for 1 h. After that, the blots were rinsed again with 3% BSA in TBST for 1 h shaking at room temperature. Lastly, the density of bands was determined by image analysis system after washing with TBST buffer three times.
Background: In western blotting, separated proteins are transferred to a membrane and probed.

In data set [2] the test system is EBV-positive C666 cells. Briefly: Two-photon confocal imaging, C666. Type of data set: cell-based. The conditions noted are these: mainly from the nuclei, 24 h incubation. The method, then:
After the study of cellular uptake, fluorescent confocal microscopy was used to study the sub-cellular localization with the same set of EBV-/LMP1-positive and -negative cell lines. All these cell lines were treated with as-prepared samples for different time intervals of 1 h, 3 h, 6 h, 12 h and 24 h. Fluorescence signals in the cells were imaged under 980 nm excitation.
The cells were then co-stained with 0.05 mM nuclear dye DRAQ5 for 0.5 h for confocal imaging with a Leica SP8 confocal microscope equipped with a coherent femtosecond laser (690-1050 nm), argon laser (432 nm, 457 nm and 488 nm), He—Ne laser (632 nm), UV lamp. A stage-top cell culture chamber was also used to maintain the atmospheric conditions of 2-7% CO2 and a temperature of 37° C.

Data set [3] deals with C666 derived xenografts. Briefly: In vivo suppression assay, C666 xenograft. The text has this: To determine the antitumor efficacy of the new nanoprobes in vivo, their therapeutic effects were investigated in C666 and HeLa derived xenografts in BALB/c nude mice. The mice were randomly divided into five groups: (1) control (PBS), (2) UCNP, (3) UCNP-P5, (4) UCNP-P6, (5) UCNP-P7. In order to recapitulate the clinical setting of drug delivery, intravenous injection (via a tail vein) was used to deliver these agents to the immunocompromised animal.
In vivo suppression assays: EBV-positive C666 and EBV-negative HeLa cells were suspended in 200 μL of serum-free RMPI 1640 and DMEM respectively. Female BALB/c nude mice (6-8 weeks) which obtained from HKU were then injected with the cells in the right flank. Intravenous injections were performed when the average tumor volumes reached ˜200 mm^3. 0.25 mg/tumor dose of UCNP and UCNP-Pn [n=5, 6 and 7 (SEQ ID NO: 5, 6, 7)] in […] PBS buffer were injected through tail vein of mice using a 24-gauge syringe. Mice injected with the same volume of PBS buffer served as control. The body weight and tumor volumes of the mice were measured three times per week; in which the latter is calculated by (L×W^2)/2, where L and W are the longer and shorter tumor dimensions respectively. Intravenous injection at the tail vein were performed twice a week and the mice were sacrificed after 33-day experimental period; the tumors were extracted and weighed. The treatment groups are unknown to the investigators for the experimental and data analysis processes. The animal experiments conducted were approved by the Department of Health of the HKSAR Government. All animal procedures are within the Guidelines for Care and Use of Laboratory Animals of HKBU and approved by the Animal Ethics Committee of HKBU.
Hematoxylin and eosin (H&E) staining: In general, the transplanted C666 and HeLa derived tumor tissues were collected and fixed with formalin, followed by embedding in paraffin. The histologic sections were then stained with hematoxylin and eosin. Other major organ tissues (heart, liver, spleen, lung, kidney, brain) were conducted in the same procedures.

Data set [4] addresses EBNA1 (DNA-binding domain fragment of a.a.468-607) (Epstein-Barr virus, UniProt P03211). Briefly: EBNA1 dimerization/oligomerization inhibition assay. The following applies: 0.3 mg/mL nanoprobe, 90 mg EBNA1, DSS crosslinking, SDS gel. Type of data set: biochemical. How it is done: EBNA1 dimerization/oligomerization inhibition assays were performed to reveal the ability of interrupting EBNA1 dimerization/oligomerization in the presence of the previous nanoprobe UCNP-P4 and the nanoplatforms in situ.
(conc.: 0.3 mg/mL) at 4° C. overnight. Then, 2 mM disuccinimidyl suberate (DSS) was added to allow the samples to undergo crosslinking reaction at room temperature for 30 min. The samples were run and separated on an SDS-denaturing gel and proteins were detected using Coomassie Blue staining. PBS buffer was used as control group.

Data set [5] in a line: Peptide release from nanoprobes under various time intervals (UV-vis absorbance). Type of data set: physicochemical. The conditions noted are these: 0.5 mg/mL. The text has this: The stability and capability of cleavage of the pH linker were also studied. […] More importantly, TEM images of UCNP-P5 at different pH buffers were observed and investigated in FIG. 1, providing direct evidence on pH-responsive peptide release from UCNP.

Data set [6] has as its system p65. The data set can be described thus: Western blot of p65 (NF-κB) in LCL3 cells. The format is cell-based.
Text: as §1, §2

Data set [7] can be described thus: Peptide release from nanoprobes under various pH buffers (UV-vis absorbance). Type of data set: physicochemical. The conditions noted are these: 24 h in buffer, 0.5 mg/mL. The source says:
The stability and capability of cleavage of the pH linker were also studied. […] More importantly, TEM images of UCNP-P5 at different pH buffers were observed and investigated in FIG. 1, providing direct evidence on pH-responsive peptide release from UCNP. […]

Where no end group is shown, it is not given here. [ ]: non-standard residue; d: D form. Ahx = NCCCCCC(=O)O

EBNA1 (DNA-binding domain fragment of a.a.468-607), sequence (P03211 468-607): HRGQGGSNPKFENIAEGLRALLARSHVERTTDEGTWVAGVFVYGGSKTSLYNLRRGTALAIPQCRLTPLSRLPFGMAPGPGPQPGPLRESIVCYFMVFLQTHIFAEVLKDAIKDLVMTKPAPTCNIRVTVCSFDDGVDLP

As for “UCNP-P6: UCNP is NaGdF4:Yb^3+, Er^3+@NaGdF4 and the plurality of polypeptides is Ahx-RrRKGGYFMVFGGFWLY (SEQ ID NO: 6) ([Ahx]R[dR]RKGGYFMVFGGFWLY; also: UCNP conjugate)”, the entries for the “Reduced p65 expression level, cytosolic fraction” value in data set [1] and in data set [6] were 87% and 85%, respectively. In addition, the “Responsive emission enhancement (lambda scan)” value in data set [2] was “two-fold”. Also, in data set [3] (12.5 mg/kg, intravenous (tail vein), twice a week, 33 days), the “Effect on average tumor size” value is “no obvious effect on the tumor size”. Also, in data set [3] (C666 tumor-bearing mice, 33-day experimental period), the Body weight result is reported as “slight reduction of body weight”. Also, the “Inhibition of EBNA1 dimerization/oligomerization” value in data set [4] was “eradicate all 90 mg EBNA1 dimers and oligomers”. Moreover, the Peptide release rate in data set [5] (1 h) turned out to be 0%; in data set [5] (3 h) it was 0%; in data set [5] (6 h) it was 0.3%; in data set [5] (12 h), 0.8%; in data set [5] (24 h), 1.4%; in data set [5] (3 day), 1.9%. The Peptide release rate in data set [5] (5 day) amounted to 2.9%; in data set [5] (7 day) it was 5.9%; in data set [7] (pH 5.0), 83.3%; in data set [7] (pH 5.5), 34.1%; in data set [7] (pH 6.0) it was 32.2%; in data set [7] (pH 6.5) it was 21.5%. For the same substance, the Peptide release rate in data set [7] (pH 7.0) is 4.6%; in data set [7] (pH 7.4) it was 0%.
